Experimental findings from publication PMC12326988, “Synthetic host defense peptide inhibits SARS-CoV-2 replication in vitro” (Antimicrobial Agents and Chemotherapy, 2025) are described below.

The test has as its target binding between SARS-CoV-2 Wuhan RBD-Fc and hACE2-AP (UniProt P0DTC2+Q9BYF1). The arrangement: species or system SARS-CoV-2; human.

Sequence of binding between SARS-CoV-2 Wuhan RBD-Fc and hACE2-AP (Q9BYF1 18-740, one chain of several): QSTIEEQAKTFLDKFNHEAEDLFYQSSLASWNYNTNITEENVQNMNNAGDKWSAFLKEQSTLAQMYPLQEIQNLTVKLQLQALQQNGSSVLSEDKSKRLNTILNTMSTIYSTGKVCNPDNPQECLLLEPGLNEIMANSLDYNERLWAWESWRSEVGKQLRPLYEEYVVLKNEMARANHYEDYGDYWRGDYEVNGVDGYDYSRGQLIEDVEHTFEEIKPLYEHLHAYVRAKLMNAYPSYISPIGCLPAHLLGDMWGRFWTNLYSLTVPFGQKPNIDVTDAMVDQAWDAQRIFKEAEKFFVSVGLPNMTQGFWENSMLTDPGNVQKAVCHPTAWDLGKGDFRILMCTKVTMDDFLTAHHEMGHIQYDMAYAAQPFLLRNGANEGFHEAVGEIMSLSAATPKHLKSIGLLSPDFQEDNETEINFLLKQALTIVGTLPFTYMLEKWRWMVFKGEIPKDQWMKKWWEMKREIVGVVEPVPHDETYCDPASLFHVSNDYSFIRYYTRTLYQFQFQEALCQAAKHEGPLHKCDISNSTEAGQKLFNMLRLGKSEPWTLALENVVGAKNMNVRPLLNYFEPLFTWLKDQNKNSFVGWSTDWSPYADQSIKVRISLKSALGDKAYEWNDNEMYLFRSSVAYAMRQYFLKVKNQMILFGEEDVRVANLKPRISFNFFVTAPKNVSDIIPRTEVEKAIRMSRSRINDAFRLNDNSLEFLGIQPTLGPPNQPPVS

Take shACE2: the “IC50, inhibition of hACE2-AP to RBD-Fc interaction” value stood at 1.42 µg/mL.
